Measurements: US20220204580A1 (AstraZeneca / MedImmune, published 2022)
Numbered stars: 1 amine (or outer) side, 2 acyl side, 3 side chain; on linkers, the order of the positions; unused ones are H or OH. Bridge positions count the residues as written; N and C are the ends. Square brackets hold non-standard residues; d marks the D form. Side chains are listed from the residue outwards. Ends that are not written are not given here. * marks the point of attachment. C18 diacid = O=C(O)CCCCCCCCCCCCCCCCC(=O)*; γGlu = O=C(O)[C@H](CCC(=O)[*:2])N[*:1]; αMeF = C[C@](N)(Cc1ccccc1)C(=O)O; Aib = CC(C)(N)C(=O)O

T1: rat calcitonin receptor (rat, UniProt P32214 25-516)
T1 sequence (looked up): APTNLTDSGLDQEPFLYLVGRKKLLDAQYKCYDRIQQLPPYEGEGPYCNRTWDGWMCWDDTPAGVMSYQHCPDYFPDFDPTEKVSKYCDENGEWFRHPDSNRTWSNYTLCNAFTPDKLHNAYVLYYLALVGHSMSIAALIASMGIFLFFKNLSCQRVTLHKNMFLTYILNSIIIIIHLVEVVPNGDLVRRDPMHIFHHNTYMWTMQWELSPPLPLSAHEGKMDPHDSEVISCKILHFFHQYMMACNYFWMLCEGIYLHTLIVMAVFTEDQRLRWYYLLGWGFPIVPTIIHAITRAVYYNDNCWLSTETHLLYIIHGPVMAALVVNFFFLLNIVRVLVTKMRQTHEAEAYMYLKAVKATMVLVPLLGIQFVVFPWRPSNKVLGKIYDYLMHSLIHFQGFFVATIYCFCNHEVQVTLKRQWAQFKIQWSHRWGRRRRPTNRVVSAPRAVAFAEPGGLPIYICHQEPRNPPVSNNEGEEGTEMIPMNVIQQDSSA

T2: rat amylin receptor (calcitonin receptor co-expressed with receptor activity modifying protein, RAMP3) (rat, UniProt P32214 25-516; Q9JJ73 23-147)
T2 sequence (looked up) 1: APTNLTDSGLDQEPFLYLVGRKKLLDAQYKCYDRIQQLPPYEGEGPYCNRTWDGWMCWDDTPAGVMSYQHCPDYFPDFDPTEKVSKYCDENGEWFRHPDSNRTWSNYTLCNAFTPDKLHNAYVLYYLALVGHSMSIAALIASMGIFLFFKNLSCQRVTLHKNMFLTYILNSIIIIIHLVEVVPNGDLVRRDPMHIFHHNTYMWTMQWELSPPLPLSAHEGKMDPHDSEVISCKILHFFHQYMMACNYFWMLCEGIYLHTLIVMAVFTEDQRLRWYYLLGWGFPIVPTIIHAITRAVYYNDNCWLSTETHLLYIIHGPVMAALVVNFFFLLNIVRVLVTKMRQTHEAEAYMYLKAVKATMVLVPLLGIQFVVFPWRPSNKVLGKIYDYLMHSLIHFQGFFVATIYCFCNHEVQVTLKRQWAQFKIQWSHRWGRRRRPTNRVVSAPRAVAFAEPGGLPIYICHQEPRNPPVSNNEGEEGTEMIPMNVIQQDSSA
T2 sequence (looked up) 2: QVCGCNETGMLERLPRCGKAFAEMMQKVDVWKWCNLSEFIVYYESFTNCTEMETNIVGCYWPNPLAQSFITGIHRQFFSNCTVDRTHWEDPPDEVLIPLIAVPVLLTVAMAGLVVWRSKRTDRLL

T3: human amylin receptor (calcitonin receptor co-expressed with receptor activity modifying protein, RAMP3) (human, UniProt P30988 25-474; O60896 24-148)
T3 sequence (looked up) 1: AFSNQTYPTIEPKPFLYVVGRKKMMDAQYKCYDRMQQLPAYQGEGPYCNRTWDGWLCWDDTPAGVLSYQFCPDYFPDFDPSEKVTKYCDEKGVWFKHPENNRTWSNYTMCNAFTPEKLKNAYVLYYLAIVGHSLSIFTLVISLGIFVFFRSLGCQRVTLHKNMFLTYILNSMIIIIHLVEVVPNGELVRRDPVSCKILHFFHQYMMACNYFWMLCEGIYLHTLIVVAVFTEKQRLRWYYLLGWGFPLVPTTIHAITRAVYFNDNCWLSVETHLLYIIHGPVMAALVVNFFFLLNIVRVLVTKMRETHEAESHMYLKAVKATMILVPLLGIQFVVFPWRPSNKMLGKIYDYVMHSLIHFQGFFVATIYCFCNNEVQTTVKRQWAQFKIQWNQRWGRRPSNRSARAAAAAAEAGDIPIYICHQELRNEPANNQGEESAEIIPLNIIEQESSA
T3 sequence (looked up) 2: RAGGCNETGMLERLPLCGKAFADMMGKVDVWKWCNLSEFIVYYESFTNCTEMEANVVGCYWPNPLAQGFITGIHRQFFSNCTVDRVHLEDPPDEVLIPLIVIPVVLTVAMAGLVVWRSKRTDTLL

T4: human calcitonin receptor (human, UniProt P30988 25-474)
T4 sequence (looked up): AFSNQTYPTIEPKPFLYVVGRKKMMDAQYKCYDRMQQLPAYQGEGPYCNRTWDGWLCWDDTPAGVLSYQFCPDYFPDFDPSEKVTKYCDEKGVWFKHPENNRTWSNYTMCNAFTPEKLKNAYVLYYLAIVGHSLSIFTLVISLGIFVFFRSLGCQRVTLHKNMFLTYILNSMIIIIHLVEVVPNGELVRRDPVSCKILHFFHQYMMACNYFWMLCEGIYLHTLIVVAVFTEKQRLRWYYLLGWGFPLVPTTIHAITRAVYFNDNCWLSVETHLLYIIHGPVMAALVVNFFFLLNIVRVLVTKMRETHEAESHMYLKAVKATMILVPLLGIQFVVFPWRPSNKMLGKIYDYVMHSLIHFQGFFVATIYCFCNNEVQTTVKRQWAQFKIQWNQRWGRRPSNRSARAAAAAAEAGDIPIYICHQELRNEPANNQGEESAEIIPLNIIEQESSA


What was measured:
Assay in all cases: cell-based or functional assay
[1] = biological target: T1, rat calcitonin receptor
[2] = biological target: T2, rat amylin receptor (calcitonin …)
[3] = biological target: T3, human amylin receptor (calcitonin …)
[4] = biological target: T4, human calcitonin receptor

Binder | EC50 (cAMP production) [1] [nM] | EC50 (cAMP production) [2] [nM] | EC50 (cAMP production) [3] [nM] | Ratio (EC50 hCTR / EC50 hAMYR3) [3] | EC50 (cAMP production) [4] [nM]
K([γGlu-γGlu-C18 diacid])CNTATCATQRLANFLRHSSNN[αMeF]GPILPPTNVGSNTY-NH2 (disulfide 2-7; N-terminus assumed; SMILES CC[C@H](C)[C@H](NC(=O)[C@@H]1CCCN1C(=O)CNC(=O)[C@](C)(Cc1ccccc1)NC(=O)[C@H](CC(N)=O)NC(=O)[C@H](CC(N)=O)NC(=O)[C@H](CO)NC(=O)[C@H](CO)NC(=O)[C@H](Cc1c[nH]cn1)NC(=O)[C@H](CCCNC(=N)N)NC(=O)[C@H](CC(C)C)NC(=O)[C@H](Cc1ccccc1)NC(=O)[C@H](CC(N)=O)NC(=O)[C@H](C)NC(=O)[C@H](CC(C)C)NC(=O)[C@H](CCCNC(=N)N)NC(=O)[C@H](CCC(N)=O)NC(=O)[C@@H](NC(=O)[C@H](C)NC(=O)[C@@H]1CSSC[C@H](NC(=O)[C@@H](N)CCCCNC(=O)CC[C@H](NC(=O)CC[C@H](NC(=O)CCCCCCCCCCCCCCCCC(=O)O)C(=O)O)C(=O)O)C(=O)N[C@@H](CC(N)=O)C(=O)N[C@@H]([C@@H](C)O)C(=O)N[C@@H](C)C(=O)N[C@@H]([C@@H](C)O)C(=O)N1)[C@@H](C)O)C(=O)N[C@@H](CC(C)C)C(=O)N1CCC[C@H]1C(=O)N1CCC[C@H]1C(=O)N[C@H](C(=O)N[C@@H](CC(N)=O)C(=O)N[C@H](C(=O)NCC(=O)N[C@@H](CO)C(=O)N[C@@H](CC(N)=O)C(=O)N[C@H](C(=O)N[C@@H](Cc1ccc(O)cc1)C(N)=O)[C@@H](C)O)C(C)C)[C@@H](C)O) [Peptide 20 (SEQ ID NO: 20)] | 1.85 | 0.0104 | 0.174 | 26 | 4.59
K([γGlu-γGlu-C18 diacid])CNTATCATQRLANFLVHSSNN[αMeF]GPILPPTRVGSNTY-NH2 (disulfide 2-7; N-terminus assumed; SMILES CC[C@H](C)[C@H](NC(=O)[C@@H]1CCCN1C(=O)CNC(=O)[C@](C)(Cc1ccccc1)NC(=O)[C@H](CC(N)=O)NC(=O)[C@H](CC(N)=O)NC(=O)[C@H](CO)NC(=O)[C@H](CO)NC(=O)[C@H](Cc1c[nH]cn1)NC(=O)[C@@H](NC(=O)[C@H](CC(C)C)NC(=O)[C@H](Cc1ccccc1)NC(=O)[C@H](CC(N)=O)NC(=O)[C@H](C)NC(=O)[C@H](CC(C)C)NC(=O)[C@H](CCCNC(=N)N)NC(=O)[C@H](CCC(N)=O)NC(=O)[C@@H](NC(=O)[C@H](C)NC(=O)[C@@H]1CSSC[C@H](NC(=O)[C@@H](N)CCCCNC(=O)CC[C@H](NC(=O)CC[C@H](NC(=O)CCCCCCCCCCCCCCCCC(=O)O)C(=O)O)C(=O)O)C(=O)N[C@@H](CC(N)=O)C(=O)N[C@@H]([C@@H](C)O)C(=O)N[C@@H](C)C(=O)N[C@@H]([C@@H](C)O)C(=O)N1)[C@@H](C)O)C(C)C)C(=O)N[C@@H](CC(C)C)C(=O)N1CCC[C@H]1C(=O)N1CCC[C@H]1C(=O)N[C@H](C(=O)N[C@@H](CCCNC(=N)N)C(=O)N[C@H](C(=O)NCC(=O)N[C@@H](CO)C(=O)N[C@@H](CC(N)=O)C(=O)N[C@H](C(=O)N[C@@H](Cc1ccc(O)cc1)C(N)=O)[C@@H](C)O)C(C)C)[C@@H](C)O) [Peptide 24 (SEQ ID NO: 24)] | 0.755 | 0.0177 | 0.127 | 15 | 1.86

Other lines, results leading:

EC50 (cAMP production) [1] [nM] | EC50 (cAMP production) [2] [nM] | EC50 (cAMP production) [3] [nM] | Ratio (EC50 hCTR / EC50 hAMYR3) [3] | EC50 (cAMP production) [4] [nM] | Binder
0.522 | 0.0056 | 0.13 | 9.2 | 1.2 | K([γGlu-C18 diacid])CNTATCATQRLANFL[Aib]HSSNNFGPILPPTNVGSNTY-NH2 (disulfide 2-7; N-terminus assumed; SMILES CC[C@H](C)[C@H](NC(=O)[C@@H]1CCCN1C(=O)CNC(=O)[C@H](Cc1ccccc1)NC(=O)[C@H](CC(N)=O)NC(=O)[C@H](CC(N)=O)NC(=O)[C@H](CO)NC(=O)[C@H](CO)NC(=O)[C@H](Cc1c[nH]cn1)NC(=O)C(C)(C)NC(=O)[C@H](CC(C)C)NC(=O)[C@H](Cc1ccccc1)NC(=O)[C@H](CC(N)=O)NC(=O)[C@H](C)NC(=O)[C@H](CC(C)C)NC(=O)[C@H](CCCNC(=N)N)NC(=O)[C@H](CCC(N)=O)NC(=O)[C@@H](NC(=O)[C@H](C)NC(=O)[C@@H]1CSSC[C@H](NC(=O)[C@@H](N)CCCCNC(=O)CC[C@H](NC(=O)CCCCCCCCCCCCCCCCC(=O)O)C(=O)O)C(=O)N[C@@H](CC(N)=O)C(=O)N[C@@H]([C@@H](C)O)C(=O)N[C@@H](C)C(=O)N[C@@H]([C@@H](C)O)C(=O)N1)[C@@H](C)O)C(=O)N[C@@H](CC(C)C)C(=O)N1CCC[C@H]1C(=O)N1CCC[C@H]1C(=O)N[C@H](C(=O)N[C@@H](CC(N)=O)C(=O)N[C@H](C(=O)NCC(=O)N[C@@H](CO)C(=O)N[C@@H](CC(N)=O)C(=O)N[C@H](C(=O)N[C@@H](Cc1ccc(O)cc1)C(N)=O)[C@@H](C)O)C(C)C)[C@@H](C)O) [Peptide 149 (SEQ ID NO: 149)]
3.09 | 0.0165 | 0.319 | 15 | 4.69 | K([γGlu-γGlu-C18 diacid])CNTATCATQRLANFLRHSSNN[αMeF]GPILPPTEVGSNTY-NH2 (disulfide 2-7) [Peptide 18 (SEQ ID NO: 18)]
